Data: patent US9395368B2, “Methods, agents and peptides for inducing an immune response to matrix metalloproteinase-2 expressing tumors” (New York University, priority 2010, dated 2016)

Assays:
[1] = tested on: CD4+ T cells from healthy donors; assay: CD4+ T cells stimulated with autologous DCs loaded with whole MMP-2 protein, response to peptide pool; assay type: cell-based, human; details: DCs incubated with MMP-2 protein (10 μM), 12 days
Protocol: (A) MMP-2-specific CD4^+ T cell clones were generated and characterized as described in Experimental Procedures. Clone HD9828/52 is shown as a representative example. Epitope specificities were assessed after overnight stimulation with individual peptides (2 μM). IFNγ, TNFα and IL-4 release was measured by ELISA. (B) All MMP-2-specific CD4^+ T cell clones were characterized by staining for CD4, CD8 and TCR Vβ chain expression. Clone HD9828/52 is shown as a representative example. (C) To establish HLA class-II isotype restriction, CD4^+ T cell clones were stimulated by corresponding peptides in the absence or presence of blocking mAb (10 μg/mL) for HLA-DP, HLA-DQ or HLA-DR and IFNγ release was measured by ELISA. (D) Purified CD4^+/CD25^− cells were stimulated for 12 days by autologous DCs incubated with MMP-2 protein (10 μM) and subsequently washed. MMP-2-specific CD4^+ T cells were detected by intracellular staining of IFNγ, TNFα and IL-4 after 6 hours of stimulation with MMP-2 peptide pool (2 μM). Numbers in the upper right quadrants are the percentages of each population.
T Cell culture, stimulation and priming. Peripheral blood mononuclear cells (PBMCs) were purified from healthy donor-(HD) or cord blood donor-(CB) derived buffy coats (New York Blood Center) by Ficoll-Paque Plus (GE Healthcare) centrifugation. CD4^+/CD25^− cells were enriched (>90%) by magnetic cell sorting (Miltenyi Biotec) and primed/stimulated for 12-15 days either with irradiated (35Gy) autologous CD4^− cells or with autologous mature DCs in IMDM (GIBCO) supplemented with 1 mM HEPES (Life Technologies), 2 mM L-glutamine (Sigma), […] (Sigma) and 5% heat inactivated pooled human serum (PHS; Valley Biomedical) in the presence of rhIL-2 (10 UI/mL) and IL7 (5 ng/mL) (R&D Systems). Antigen presenting cells (CD4^− cells or DCs) were loaded either with peptides (2 μM) or with the MMP-2 protein (10 μg/mL) for 2 and 5 h, respectively. DCs were matured using the TLR3 agonist poly(I:C) at 5 μg/mL/10^6 DCs (Amersham). To generate T cell clones, we originally relied on our published methodology (Godefroy et al., 2006; Godefroy et al., 2007; the entire contents of each of which is incorporated herein by reference), involving enrichment of IFNγ-secreting cells upon short-term culture and peptide stimulation to generate MMP-2 responsive clones. Briefly, CD4^+ T cells were stimulated by CD4^− cells irradiated and pulsed with peptides for 12 days in the presence of rhIL-2 and rhIL-7. CD4^+ T cells were then restimulated with peptides for 3 hours before capturing IFNγ-secreting specific cells using a bispecific antibody coating T cells and capturing produced IFNγ. […]
Intracellular staining T-bet and GATA-3 expression was measured on resting T cells. […]

[2] = tested on: Cord blood-derived CD4+/CD25- cells; assay: Priming of naive cord blood CD4+ T cells with autologous CD4- cells loaded with different sources of MMP-2; assay type: cell-based, human
Protocol: Cord blood-derived CD4^+/CD25^− cells from 11 donors were stimulated with irradiated autologous CD4^− cells loaded either with active MMP-2, heat-inactivated (HI) MMP-2 or with MMP-2 pre-incubated with a specific inhibitor (+I). After 15 days, CD4^+ T cells were stimulated with the MMP-2 peptide pool (2 μM) for 6 h before intracellular staining of cytokines. (A) Density plots representing cytokine production by CD4^+ T cells are shown for the representative donor CB35 primed to MMP-2 either in its active form or after heat-inactivation. Numbers indicate percentages of cytokine-producing cells upon MMP-2 peptide stimulation. […] MMP-2 enzymatic activity was controlled (FIG. 13C-D). For each cytokine, 3 paired t-tests were used to compare active MMP-2 to heat inactivated MMP-2, to MMP-2+I, and to MMP-2 peptides. P values≦0.0167 (*) were considered statistically significant using a Bonferroni correction for 3 comparisons.
T Cell culture, stimulation and priming. Peripheral blood mononuclear cells (PBMCs) were purified from healthy donor-(HD) or cord blood donor-(CB) derived buffy coats (New York Blood Center) by Ficoll-Paque Plus (GE Healthcare) centrifugation. CD4^+/CD25^− cells were enriched (>90%) by magnetic cell sorting (Miltenyi Biotec) and primed/stimulated for 12-15 days either with irradiated (35Gy) autologous CD4^− cells or with autologous mature DCs in IMDM (GIBCO) supplemented with 1 mM HEPES (Life Technologies), 2 mM L-glutamine (Sigma), streptomycin (100 UI/mL)/penicillin (100 μg/mL) (Sigma) and 5% heat inactivated pooled human serum (PHS; Valley Biomedical) in the presence of rhIL-2 (10 UI/mL) and IL7 (5 ng/mL) (R&D Systems). Antigen presenting cells (CD4^− cells or DCs) were loaded either with peptides (2 μM) or with the MMP-2 protein (10 μg/mL) for 2 and 5 h, respectively. DCs were matured using the TLR3 agonist poly(I:C) at 5 μg/mL/10^6 DCs (Amersham). To generate T cell clones, we originally relied on our published methodology (Godefroy et al., 2006; Godefroy et al., 2007; the entire contents of each of which is incorporated herein by reference), involving enrichment of IFNγ-secreting cells upon short-term culture and peptide stimulation to generate MMP-2 responsive clones. Briefly, CD4^+ T cells were stimulated by CD4^− cells irradiated and pulsed with peptides for 12 days in the presence of rhIL-2 and rhIL-7. CD4^+ T cells were then restimulated with peptides for 3 hours before capturing IFNγ-secreting specific cells using a bispecific antibody coating T cells and capturing produced IFNγ. Positive cells were purified magnetically before being cloned. Although MMP-2-specific cells could be isolated, it was realized that IFNγ secretion was marginal compared to their secretion of IL-4 and TNFα. IFNγ-secreting cells in response to MMP-2 peptide pool were enriched by cytokine-guided magnetic cell sorting (Miltenyi Biotec) as described above and cloned the following day by limiting dilution in the presence of irradiated allogeneic PBMCs, 1 μg/mL phytohemagglutinin-L (Sigma) and 150 UI/mL rhIL-2. Tumor infiltrating lymphocytes (TILs) were provided by Pr. F. Jotereau and B. Dréno. They were obtained from tumor-invaded lymph nodes of melanoma patients (stage Mb) and expanded ex vivo. These patients received autologous TILs and IL-2 infusions in a clinical trial (Labarriere et al., 2002). This protocol was approved by the Institutional Ethics Committee and registered with regulatory state authority in France (Nantes).
Intracellular staining T-bet and GATA-3 expression was measured on resting T cells. Cells were fixed (4% paraformaldehyde for 10 min at RT), permeabilized with 0.1% saponin, and stained for intracellular transcription factors. Cytokine production by T cells was also assessed by intracellular staining T cells were stimulated with 2 μM overlapping peptides. After 1 h, 10 μg/mL brefeldin A was added to the cells. […]

B1: active MMP-2: Purified human MMP-2 (mixture of the proenzyme (50%) and the active form (50%)) purchased from Biomol (protein, listed as Homo sapiens)
chain: MEALMARGALTGPLRALCLLGCLLSHAAAAPSPIIKFPGDVAPKTDKELAVQYLNTFYGCPKESCNLFVLKDTLKKMQKFFGLPQTGDLDQNTIETMRKPRCGNPDVANYNFFPRKPKWDKNQITYRIIGYTPDLDPETVDDAFARAFQVWSDVTPLRFSRIHDGEADIMINFGRWEHGDGYPFDGKDGLLAHAFAPGTGVGGDSHFDDDELWTLGEGQVVRVKYGNADGEYCKFPFLFNGKEYNSCTDTGRSDGFLWCSTTYNFEKDGKYGFCPHEALFTMGGNAEGQPCKFPFRFQGTSYDSCTTEGRTDGYRWCGTTEDYDRDKKYGFCPETAMSTVGGNSEGAPCVFPFTFLGNKYESCTSAGRSDGKMWCATTANYDDDRKWGFCPDQGYSLFLVAAHEFGHAMGLEHSQDPGALMAPIYTYTKNFRLSQDDIKGIQELYGASPDIDLGTGPTPTLGPVTPEICKQDIVFDGIAQIRGEIFFFKDRFIWRTVTPRDKPMGPLLVATFWPELPEKIDAVYEAPQEEKAVFFAGNEYWIYSASTLERGYPKPLTSLGLPPDVQRVDAAFNWSKNKKTYIFAGDKFWRYNEVKKKMDPGFPKLIADAWNAIPDNLDAVVDLQGGGHSYFFKGAYYLKLENQSLKSVKFGSIKSDWLGC
- cells secreting IFNγ ([1]; donor HD6026): 0.12%
- cells secreting IL-4 ([1]; donor HD6026): 0.73%
- cells secreting IFNγ ([1]; donor HD6028): 0.17%
- cells secreting IL-4 ([1]; donor HD6028): 1.99%
- percentage of MMP-2-specific CD4+ T cells secreting IL-4, mean ([2]; 11 cord blood donors, 15 days after priming, after background subtraction): 2.38%
- IFNγ and IL-2 production compared to inactive MMP-2 or peptides ([2]; primed cells, 15 days): less
